In the Human Domainome abundance scans (Beltran et al. 2025):

B1: V(D)J recombination-activating protein 2, residues 415 to 491; numbered along this chain, P55895 (parent)
chain: YWITCCPTCDVDINTWVPFYSTELNKPAMIYCSHGDGHWVHAQCMDLAERTLIHLSAGSNKYYCNEHVEIARALHTP

Variants of: B1
Assay: abundance fitness (aPCA) (normalised: wild type 0, dead -1); higher = more abundant; growth selection in yeast, the domain comes from the species named
Details: Homo sapiens

Abundance fitness: each site, then its substitutions
M29: E -0.421; R 0.055; S 0.208; I -0.234; C -0.532; A -0.575; L 0.072; G -0.377
H38: A -0.986; V -0.776; N -0.689; Y -0.543
H41: R -0.755; D -0.785; Y -0.771
M45: I -0.615; Y -0.296; K -0.202; E -0.265; N -0.016; H 0.058; W -0.431; V -0.217; P -1.26; Q 0.032; C -0.181; G -0.43; T -0.395; L -0.291; F -0.231; D -0.193
T22: W -0.121; L -0.179; M 0.389; K 0.052; V -0.062; P -0.281; S 0.096; R -0.23
Q43: T 0.107; M -0.048; P -0.771; L -0.196; V -0.116; G -0.203; S -0.174; E -0.344; R 0.129; A -0.397
P27: H -0.741; S -0.958; F -0.515; V -0.668; D -1.01; A -0.776; G -1.09; R -0.973; Q -0.79; L -0.861; C -0.938
N25: D -0.297; E 0.167; R -0.052; Q 0.132; L 0.073; S -0.042; V 0.065; T -0.05; H 0.113; Y -0.344; C -0.309; G 0.01; M -0.254; W -0.024; A -0.124
A48: C -0.061; D -0.044; E 0.013; G -0.078; F -0.161
A28: S -0.035; L -0.094; P -0.334; W -0.116; K -0.112; G -0.775; H -0.23; V -0.155; T -0.218; Q -0.104; R -0.214; E -0.172; F -0.183; C -0.117; D -0.318; M -0.213; N 0.078; Y 0.009
D46: S 0.102; G -0.03; R 0.041; N 0.029; K 0.122; H -0.071; T 0.088; M 0.071; L 0.031; C 0.036; F -0.221; Y -0.113; W -0.193; E -0.05; P -0.268; V 0.046; Q 0.085
W39: R -0.185; S -0.209; E -0.148; Q -0.176; D -0.536; N -0.274; Y 0.014; H -0.144; P -0.294; V -0.193; T -0.197; L -0.097; M -0.072; K -0.23; F -0.105; G -0.54; I -0.278
E23: H -0.635; F -0.901; K -0.54; R -1.03; D 0.122; C -0.851; S -0.805; G -0.372
L24: E 0.296; T -0.081; I -0.156; M -0.319; P -0.56; W -0.305; Y -0.337; V -0.083; C 0.027; A -0.164; F -0.362; S -0.153; Q -0.1
Y31: I -0.649; F -0.061; W -0.193; T -0.197; K 0.041; E -0.018; N -0.322; A -0.193; S -0.188; P -0.245; R -0.04; M 0.004; G -0.337; V -0.241
